Values joined by “and” are separate entries in the source; they are usually repeats but may differ in a detail not shown here. Identical values can stand only once. Like-named read-outs stand apart in the source and are kept apart here.
Key:
[1] = target: Recombinant human FcγRI/CD64, extracellular domain, glycosylated (human) (UniProt P12314); experiment: flow cytometry of spheroplasts displaying the Fc clone, labelled with FcγRIa-FITC; the value is repeated on D00019 and D00020
[2] = target: Protein A-FITC (Staphylococcus aureus) (UniProt P38507); experiment: flow cytometry (FL1-Height) of spheroplasts labelled with Protein A-FITC; medium 'TB, 0.5M Soribitol'
[3] = target: Protein A-FITC (Staphylococcus aureus) (UniProt P38507); experiment: flow cytometry (FL1-Height) of spheroplasts labelled with Protein A-FITC; medium TB
[4] = target: Protein A-FITC (Staphylococcus aureus) (UniProt P38507); experiment: flow cytometry (FL1-Height) of spheroplasts labelled with Protein A-FITC; medium TB, 0.5M Trehalose
[5] = target: Protein A-FITC (Staphylococcus aureus) (UniProt P38507); experiment: flow cytometry (FL1-Height) of E. coli spheroplasts labelled with Protein A-FITC; APEx displayed Fc [panel a]
[6] = target: PA-FITC (PA antigen of Bacillus anthracis) (Bacillus anthracis) (UniProt P13423)
PA-FITC (PA antigen of Bacillus anthracis) (Bacillus anthracis), sequence (P13423 30-764 limits assumed): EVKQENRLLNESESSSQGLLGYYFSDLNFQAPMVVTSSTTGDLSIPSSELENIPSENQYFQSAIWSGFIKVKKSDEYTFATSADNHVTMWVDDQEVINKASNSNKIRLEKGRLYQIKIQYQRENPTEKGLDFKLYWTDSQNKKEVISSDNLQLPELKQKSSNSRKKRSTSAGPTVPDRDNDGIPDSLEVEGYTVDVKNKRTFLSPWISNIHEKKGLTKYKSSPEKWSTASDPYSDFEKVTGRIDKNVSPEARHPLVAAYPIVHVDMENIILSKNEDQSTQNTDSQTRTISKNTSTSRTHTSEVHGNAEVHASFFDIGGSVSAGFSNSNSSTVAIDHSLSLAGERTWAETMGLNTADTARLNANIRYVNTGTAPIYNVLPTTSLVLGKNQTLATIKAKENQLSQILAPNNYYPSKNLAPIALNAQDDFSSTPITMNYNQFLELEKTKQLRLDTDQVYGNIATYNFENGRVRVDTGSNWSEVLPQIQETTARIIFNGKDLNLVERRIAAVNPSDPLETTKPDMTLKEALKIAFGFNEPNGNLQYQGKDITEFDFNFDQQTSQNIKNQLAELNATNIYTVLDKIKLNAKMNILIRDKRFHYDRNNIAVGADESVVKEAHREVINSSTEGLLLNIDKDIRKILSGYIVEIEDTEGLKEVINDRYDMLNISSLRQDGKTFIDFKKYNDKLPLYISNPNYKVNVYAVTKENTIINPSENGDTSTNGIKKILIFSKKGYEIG

[7] = target: Protein A-FITC (Staphylococcus aureus) (UniProt P38507); experiment: flow cytometry (FL1-Height) of E. coli spheroplasts labelled with Protein A-FITC; Fc-cFos co-expressed with the inner-membrane anchor NlpA-cJun-FLAG [panel a]
[8] = target: Protein A-FITC (Staphylococcus aureus) (UniProt P38507); experiment: flow cytometry (FL1-Height) of E. coli spheroplasts labelled with Protein A-FITC; one plasmid, no cJun anchor co-expressed [panel b]
[9] = target: Protein A-FITC (Staphylococcus aureus) (UniProt P38507)
[10] = target: Protein A-FITC (Staphylococcus aureus) (UniProt P38507); remark: listed apart in the source
[11] = target: extracellular domain of glycosylated FcγRIIa (R&D systems), FITC-labeled (human) (UniProt P12318); experiment: flow cytometry of spheroplasts displaying the Fc, labelled with FcγRIIa-FITC
extracellular domain of glycosylated FcγRIIa (R&D systems), FITC-labeled (human), sequence (P12318 34-217): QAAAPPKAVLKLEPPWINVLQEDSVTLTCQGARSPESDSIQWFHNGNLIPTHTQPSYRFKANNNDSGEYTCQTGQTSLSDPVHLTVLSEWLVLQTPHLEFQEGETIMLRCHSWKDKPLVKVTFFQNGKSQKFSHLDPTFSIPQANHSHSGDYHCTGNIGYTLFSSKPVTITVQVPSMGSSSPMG

[12] = target: Protein A-FITC (Staphylococcus aureus) (UniProt P38507); experiment: flow cytometry (FL1-Height) of E. coli spheroplasts labelled with Protein A-FITC; one plasmid, no cJun(Cys) anchor co-expressed [panel b]
[13] = target: Protein A-FITC (Staphylococcus aureus) (UniProt P38507); experiment: flow cytometry (FL1-Height) of E. coli spheroplasts labelled with Protein A-FITC; Fc-cFos(Cys) co-expressed with the inner-membrane anchor NlpA-cJun(Cys)-FLAG; the same histogram stands in both panels [panels a and b]
[14] = target: Protein A-FITC (Staphylococcus aureus) (UniProt P38507); experiment: flow cytometry (FL1-Height) of E. coli spheroplasts labelled with Protein A-FITC; no Fc expressed [panel a]
[15] = target: Recombinant human FcγRI/CD64, extracellular domain, glycosylated (human) (UniProt P12314); experiment: SPR (BIAcore 3000), FcγRIa immobilized on CM-5

Recombinant human FcγRI/CD64, extracellular domain, glycosylated (human), sequence (P12314 16-292): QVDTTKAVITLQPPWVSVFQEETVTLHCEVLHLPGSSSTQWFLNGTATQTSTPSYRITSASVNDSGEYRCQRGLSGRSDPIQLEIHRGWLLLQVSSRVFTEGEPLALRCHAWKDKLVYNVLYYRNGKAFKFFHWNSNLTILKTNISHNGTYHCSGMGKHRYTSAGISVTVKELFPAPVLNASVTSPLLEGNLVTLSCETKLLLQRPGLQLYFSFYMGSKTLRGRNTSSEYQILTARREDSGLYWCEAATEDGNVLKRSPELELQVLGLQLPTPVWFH

## Fc117 (E382V, M428I, Y436A), aglycosylated Fc mutant (from UniProt P0DOX5 223-449)
[1]
  FACS mean value: 391

## NlpA-Fc-His
[2]
  Mn (mean fluorescence intensity): 1290
[3]
  Mn (mean fluorescence intensity): 1080
[4]
  Mn (mean fluorescence intensity): 3130
[5]
  Mn (mean fluorescence intensity): 2410

## M18.1 humanized scFv
[6]
  Mn (mean fluorescence intensity): 313

## 26-10 IgG1 (anti-digoxin) (antibody)
[6]
  Mn (mean fluorescence intensity): 13.9

## 26-10 scAb (anti-digoxin)
[6]
  Mn (mean fluorescence intensity): 14.7

## PelB-Fc-cFos-His
[7]
  Mn (mean fluorescence intensity): 244
[8]
  Mn (mean fluorescence intensity): 837

## M18 scFv (PelB fused, anti-PA)
[9]
  M (mean fluorescence intensity): 40 and 62.9
[10]
  M (mean fluorescence intensity): 43

## M18.1 humanized scAb
[6]
  Mn (mean fluorescence intensity): 277

## Fc5 (E382V, M428I), aglycosylated Fc mutant (from UniProt P0DOX5 223-449)
[11]
  M (mean fluorescence intensity): 66.7

## PelB-Fc-cFos(Cys)-His
[12]
  Mn (mean fluorescence intensity): 879
[13]
  Mn (mean fluorescence intensity): 733

## 26-10 scFv (anti-digoxin)
[6]
  Mn (mean fluorescence intensity): 16.3

## NlpA-cJun(Cys)-FLAG
[14]
  Mn (mean fluorescence intensity): 111

## commercially available glycosylated human IgG1 (antibody)
[15]
  Kd: 18 nM

## M18.1 humanized IgG1 (antibody)
[6]
  Mn (mean fluorescence intensity): 164

Reference: patent US20090136936A1
